The conditions of this data set: Escherichia coli (strain K12); pH 7.8; 25 °C; Urea; CD; Potassium phosphate 10 mM; transition: 3; whole UniProt chain shown.

“And” between values parts separate entries of the source, which are not always exact repeats. Equal entries are not always repeated.

B1: Tryptophan synthase alpha chain wild type, P0A877 (protein)
chain: MERYESLFAQLKERKEGAFVPFVTLGDPGIEQSLKIIDTLIEAGADALELGIPFSDPLADGPTIQNATLRAFAAGVTPAQCFEMLALIRQKHPTIPIGLLMYANLVFNKGIDEFYAQCEKVGVDSVLVADVPVEESAPFRQAALRHNVAPIFICPPNADDDLLRQIASYGRGYTYLLSRAGVTGAENRAALPLNHLVAKLKEYNAAPPLQGFGISAPDQVKAAIDAGAAGAISGSAIVKIIEQHINEPEKMLAALKVFVQPMKAATRS
On to B1, for which the denaturant m value was 2.29 kcal/mol/M and 1.2 kcal/mol/M; the unfolding free energy is 6.13 kcal/mol and 4.72 kcal/mol.

The values are drawn from FireProtDB (doi:10.1016/j.jmb.2005.06.006).
